The text below walks through data of patent US9284369B2, “Inhibition of angiogenesis” (Genentech, Inc., priority 2007, dated 2016).

Holding throughout (format): cell-based
In test [1] the test system is PKR2/EG-VEGFR2 expression. The experiment in a line: Regulation of PKR2/EG-VEGFR2 expression in human bone marrow cells and neutrophils. The text has this: Taqman reagents for human PKR1/EG-VEGFR1 and PKR2/EG-VEGFR2 were obtained from Applied Biosystems.
(§1) Recombinant human MCP-1, MIP-1α, MIP-1β, MIP-2, bFGF, VEGF, GM-CSF, G-CSF, SDF-1α, M-CSF, Erythropoietin (EPO) and TNFα were purchased from R&D Systems (Minneapolis, Minn.). Recombinant human IL-8, IFNγ, Bv8 (Prokineticin-2), IL-4, IL-10, IL-13, TGF-β were from PeproTech Inc. (Rocky Hill, N.J.). SCF (Stem Cell factor) was from Invitrogen Biosource (Carlsbad, Calif.). In some cases, G-CSF from Amgen (Neupogen/Filgrastim) was used. All cytokines were used at 10 ng/ml. Freshly purified cells were washed and re-suspended in HBSS media containing 0.2% BSA (low endotoxin, Serologicals Corp. Norcross, Ga.). Two million cells were incubated in 24-well plates with various cytokines and chemokines for 4 hr at 37° C. in a 5% CO2 incubator. Cells were then transferred into eppendorf tubes, centrifuged and lysed with RNA lysis buffer (Qiagen, Valencia, Calif.). Bv8 expression was assessed by Taqman with RPL19 (Ribosomal Protein L19) as the internal control gene.

Test [2] concerns Bv8 expression. The experiment in a line: Bv8 expression in human leukemia cell lines. As to the method: U937, HL-60, THP-1, Hel 92.1.7, KG-1, K562, Jurkat cells were obtained from the ATCC® (Manassas, Va.). Most cells were grown in 10% FBS-containing RPMI. KG-1 cells were grown in 20% FBS-containing Iscove's modified Dulbecco's medium. For THP-1 cells, 10% FBS-containing RPMI was used with Sodium Pyruvate, HEPES and β-mercaptoethanol. For regulation studies, 1 million cells with viability higher than 95% were used. Regulation studies were performed under both normoxia and hypoxia conditions for 4 hr in 1 ml HBSS media containing 0.2% BSA.

Test [3] relates to Bv8 expression. Put plainly: Regulation of Bv8 gene expression in cultured mouse BMMNCs (Taqman). The conditions noted are these: for stimulation of Bv8 expression in CD11b+Gr1+ cells: 20 pg/ml G-CSF, 4 hrs. The protocol:
RNA from tissues or cells was prepared using the RNeasy Mini Kit® (Qiagen). 50 ng total RNA per reaction was used for the real time PCR (Taqman™) analysis. For mouse/human Bv8 and EG-VEGF/Bv8 receptor 1 (PKR-1/EG-VEGFR1, R-1), testis RNA (BD Biosciences) served as control. For mouse/human EG-VEGF/Bv8 receptor 2 (PKR-2/EG-VEGFR2, R2), hypothalamus or whole brain (BD Biosciences) served as the control tissues. Reactions were run on 9600 Emulation mode of 7500 Real […] time PCR system (Applied Biosystems) and the absolute quantification with standard curve was used with Sequence Detection System (SDS) software. The expression level of each gene was further quantified against the house-keeping gene RPL19 in the same sample. To confirm the expression of VEGFR-1, VEGFR-2, EG-VEGF/Bv8 R1 and EG-VEGF/Bv8 R2 in the tumor-associated endothelial cells, standard RT-PCR was conducted using the Titan One Tube™ RT-PCR system (Roche) and the end products were checked on 2% agarose gel (Invitrogen) for the correct size. The sequence of Taqman™ primers are as follows: […]
Recombinant mouse MCP-1, MIP-1α, MIP-1β, MIP-2, bFGF, VEGF, GM-CSF, G-CSF, SDF-1 and TNFα were purchased from R&D Systems (Minneapolis, Minn.). Recombinant mouse KC, IFNγ, Bv8 (Prokineticin-2), IL-4, IL-10, IL-13, TGF-β were from PeproTech Inc. (Rocky Hill, N.J.). […] Conditioned media at 1:3 dilution were used (final FBS concentration was 0.17%). Data were normalized against total cell number. BM cells were flushed from mouse leg bones with DMEM containing 10% FBS. Cells were centrifuged at 1200 rpm for 5 min and resuspended in HBSS media containing 0.2% BSA (low endotoxin, Serologicals Corp. Norcross, Ga.). Two million cells were incubated in 24-well plates with various cytokines for 4 hr at 37° C. in a 5% CO2 incubator. Cells were then transferred in eppendorf tubes, centrifuged and lysed by RNA lysis buffer (Qiagen, Valencia, Calif.). Bv8 expression was assessed by Taqman™ with RPL19 (Ribosomal Protein L19) as the internal control gene. In some cases, CD11b+Gr1+ or CD11b−Gr1− BM cells were obtained using FACS sorting.
For orientation: Real-time PCR tracks product formation cycle by cycle.

For test [4], the system named is Bv8 expression. The experiment in a line: Regulation of Bv8 gene expression in cultured human blood and bone marrow cells (Taqman). The protocol:
RNA was prepared using the RNeasy™ Mini Kit (Qiagen). 50 ng total RNA per reaction was used for the real time PCR (Taqman) analysis. For human Bv8, testis RNA (BD Biosciences) served as control. Reactions were run on 9600 Emulation mode of 7500 Real time PCR system (Applied Biosystems, Foster City, Calif.) and the absolute quantification with standard curve was used with Sequence Detection System (SDS) software. The expression level of each gene was further quantified relative to the housekeeping gene RPL19 in the same sample. The sequences of Taqman primers are as follows: Human Bv8 forward: ATG GCA CGG AAG CTA GGA (SEQ ID NO: 10), reverse: GCAGAGCTGAAGTCCTCTTGA (SEQ ID NO: 11), probe: TGCTGCTGGACCCTTCCTAAACCT (SEQ ID NO: 12); Human RPL19 forward: CGC AAG CGC CGT GAA (SEQ ID NO: 28), reverse: GGTCTCTTCCTCCTTGGATAAAGTC (SEQ ID NO: 29), probe: CCAGGCCAAGAAGGAGGAGATCATCA (SEQ ID NO: 30). Human specific VEGF forward: AAT GAC GAG GGC CTG GAG T (SEQ ID NO: 31), reverse: TTGATCCGCATAATCTGCATG (SEQ ID NO: 32), probe: TGTGCCCACTGAGGAGTCCAACATCA (SEQ ID NO: 33).
as §1

B1: G-CSF: recombinant granulocyte-CSF: mouse or human (R&D Systems) or human Neupogen (Amgen) (protein, chains of the INN, looked up)
chain: MTPLGPASSLPQSFLLKCLEQVRKIQGDGAALQEKLCATYKLCHPEELVLLGHSLGIPWAPLSSCPSQALQLAGCLSQLHSGLFLYQGLLQALEGISPELGPTLDTLQLDVADFATTIWQQMEELGMAPALQPTQGAMPAFASAFQRRAGGVLVASHLQSFLEVSYRVLRHLAQP
With B1, the “regulation of PKR2/EG-VEGFR2 in human bone marrow” value in test [1] is given as “regulate PKR2/EG-VEGFR2 to a significant level”. The “Bv8 expression in HL-60” value in the test on Bv8 expression [2] is “Neither G-CSF nor GM-CSF affected Bv8 expression”. The “increase in Bv8 expression in several leukemia cell lines” value with Bv8 expression [2] (10 ng/ml, 4 hr) is 2-3 fold. The “stimulation of Bv8 expression in CD11b+Gr1+ cells” value with Bv8 expression [3] (hypoxic conditions) was approximately 10 fold. For the same molecule, the “stimulation of Bv8 expression in CD11b+Gr1+ cells” value in the test on Bv8 expression [3] (normoxic conditions) is on record as approximately 5 fold. Moreover, in the test on Bv8 expression [3] (10 ng/ml, 4 hr), the “Bv8 up-regulation in purified CD11b+Gr1+ cells” value is “over 100 fold” and the “up-regulation of Bv8 in unsorted BMMNCs” value is listed as more than 27 fold. Also, in the test with Bv8 expression [4] (10 ng/ml, 4 hr), the “Bv8 expression in monocytes and lymphocytes” value is on record as “did not show any change”; the “induction of Bv8 expression in human neutrophils and whole bone marrow cells” value turned out to be 7 fold; the “range of induction of Bv8 expression” value was 6-12 fold. Also, the “duration of Bv8 mRNA induction” value in the test with Bv8 expression [4] (data not shown) is listed as “up to 24 hr”.
